From PMC3280250, “Functional Redundancy of Two Pax-Like Proteins in Transcriptional Activation of Cyst Wall Protein Genes in Giardia lamblia” come the findings set out here.

B1: cwp3-30/+10 (dsDNA)
DNA 1: GTCTTTCCCAAAAAATAAGTTACTACTGATATGTTTTCTC
DNA 2: GAGAAAACATATCAGTAGTAACTTATTTTTTGGGAAAGAC
B2: cwp1-45/-1m4 (dsDNA)
DNA 1: GTTTACAACTCTCAGATCGGCGGGCACAGAAATAAAATATCAGGG
DNA 2: CCCTGATATTTTATTTCTGTGCCCGCCGATCTGAGAGTTGTAAAC
B3: cwp1-45/-1m11 (dsDNA)
DNA 1: GTTTACAACTCTCAGATCAAGAAACACAGAAAAAAAAAAACAGGG
DNA 2: CCCTGTTTTTTTTTTTCTGTGTTTCTTGATCTGAGAGTTGTAAAC
B4: cwp1-45/-1m9 (dsDNA)
DNA 1: B3 DNA 1 with A33T, A38T, A40C, C41G, A42G
DNA 2: B3 DNA 2 with T4C, G5C, T6G, T8A, T13A
B5: cwp1-45/-1m5 (dsDNA)
DNA 1: GTTTACAACTCTCAGATCAAGAAAGGGAGAAATAAAATATCAGGG
DNA 2: CCCTGATATTTTATTTCTCCCTTTCTTGATCTGAGAGTTGTAAAC
B6: cwp1-45/-1 (dsDNA)
DNA 1: B3 DNA 1 with A33T, A38T, A40T
DNA 2: B5 DNA 2 with C19G, C20T, C21G
B7: ran-30/-1 (dsDNA)
DNA 1: TAAAACTTTAACCCAGGAACCGAGAGTAGC
DNA 2: GCTACTCTCGGTTCCTGGGTTAAAGTTTTA
B8: ran-81/-52 (dsDNA)
DNA 1: CAGAAAAAGTTGTCAAGGAGGTGATAGCCG
DNA 2: CGGCTATCACCTCCTTGACAACTTTTTCTG
B9: poly(A) with TT insertion (dsDNA)
DNA 1: AAAAAAAAAAATTAAAAAAAAAA
DNA 2: TTTTTTTTTTAATTTTTTTTTTT
B10: poly(A) with T insertion (dsDNA)
DNA 1: AAAAAAAAAAATAAAAAAAAAAA
DNA 2: TTTTTTTTTTTATTTTTTTTTTT
B11: poly(A) with TC insertion (dsDNA)
DNA 1: AAAAAAAAAAATCAAAAAAAAAA
DNA 2: TTTTTTTTTTGATTTTTTTTTTT
B12: poly(A) with TTT insertion (dsDNA)
DNA 1: AAAAAAAAAATTTAAAAAAAAAA
DNA 2: TTTTTTTTTTAAATTTTTTTTTT
B13: cwp2-60/-31 (dsDNA)
DNA 1: TAGACTGATGCTGTAGAGGTCAACAGATAA
DNA 2: TTATCTGTTGACCTCTACAGCATCAGTCTA
B14: poly(A) (dsDNA)
DNA 1: AAAAAAAAAAAAAAAAAAAAAAA
DNA 2: TTTTTTTTTTTTTTTTTTTTTTT
B15: myb2-60/-31 (dsDNA)
DNA 1: TGGCTATGTATTTTTTCTTCTTCTACAGCT
DNA 2: AGCTGTAGAAGAAGAAAAAATACATAGCCA
B16: cwp1-90/-46 (dsDNA)
DNA 1: CTGGCTAACAGTCTACAGTCTACAATTTACAGTATACAATCTACA
DNA 2: TGTAGATTGTATACTGTAAATTGTAGACTGTAGACTGTTAGCCAG
B17: ran-51/-20 (dsDNA)
DNA 1: TAAAATAAATTAAATCGAAATTAAAACTTTAA
DNA 2: TTAAAGTTTTAATTTCGATTTAATTTATTTTA
B18: cwp1-90/-69 (dsDNA)
DNA 1: CTGGCTAACAGTCTACAGTCTA
DNA 2: TAGACTGTAGACTGTTAGCCAG
B19: cwp2-30/+8 (dsDNA)
DNA 1: CAGCAGCTCAACAGTGGCTGGGAAAATAAAATGATCGC
DNA 2: GCGATCATTTTATTTTCCCAGCCACTGTTGAGCTGCTG

Residue numbers refer to the chain shown, from its start.

One data set addresses T1, Pax2 (Giardia lamblia, UniProt A8B733 1-302).
T1 sequence: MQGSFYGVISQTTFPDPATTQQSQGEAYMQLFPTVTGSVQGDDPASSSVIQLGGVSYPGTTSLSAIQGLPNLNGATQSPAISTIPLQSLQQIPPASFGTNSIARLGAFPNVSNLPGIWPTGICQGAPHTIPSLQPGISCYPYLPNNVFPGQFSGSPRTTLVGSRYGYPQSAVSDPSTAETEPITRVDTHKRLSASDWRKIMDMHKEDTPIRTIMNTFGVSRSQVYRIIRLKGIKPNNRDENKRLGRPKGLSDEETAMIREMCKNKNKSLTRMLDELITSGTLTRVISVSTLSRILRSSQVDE
The data set can be described thus: EMSA; strong binding; EMSA: 0.02 pmol 5'-32P probe, 5 ng protein, 20 ul, 0.5 ug poly(dI-dC), 15 min at room temperature, 6% acrylamide gel; buffer, salt and pH only by reference [31]. The settings on record: protein: recombinant; tags: C-terminal V5-His (pET101/D-TOPO); label: 5'-32P.
As to B1, the binding result is given as “binds”.

Another data set deals with T1, Pax2. In words: EMSA; unchanged; EMSA: 0.02 pmol 5'-32P probe, 5 ng protein, 20 ul, 0.5 ug poly(dI-dC), 15 min at room temperature, 6% acrylamide gel; buffer, salt and pH only by reference [31]. The note with it: protein: recombinant; tags: C-terminal V5-His (pET101/D-TOPO); label: 5'-32P. In general terms: A gel shift assay detects complexes by their altered migration in electrophoresis.
Turning to B2, the binding result is “binds”. Consider B3, for which the binding result is given as “binds”. The same measure, in the same setting: with B4 the entry was “binds”; with B5, “binds”.

Another data set addresses T1, Pax2. In words: EMSA; self-competition and anti-V5 supershift assay confirm specificity; EMSA: 0.02 pmol 5'-32P probe, 5 ng protein, 20 ul, 0.5 ug poly(dI-dC), 15 min at room temperature, 6% acrylamide gel; buffer, salt and pH only by reference [31]. The note with it: protein: recombinant; tags: C-terminal V5-His (pET101/D-TOPO); label: 5'-32P.
On to B6, for which the binding result was “binds”.

A further data set addresses T1, Pax2. The data set can be described thus: EMSA; EMSA: 0.02 pmol 5'-32P probe, 5 ng protein, 20 ul, 0.5 ug poly(dI-dC), 15 min at room temperature, 6% acrylamide gel; buffer, salt and pH only by reference [31]. The settings on record: protein: recombinant; tags: C-terminal V5-His (pET101/D-TOPO).
Regarding B7, the binding result was “no binding”. On the same count and under the same terms, with GTTTACAACTCTCAGATCAAGAAACACAGAAATAAAATATCAGGG (ssDNA) [cwp1-45/-1 single strand 1] the entry was “no binding”.

The same data set, now with this note: protein: recombinant; tags: C-terminal V5-His (pET101/D-TOPO); label: 5'-32P.
For B8, the binding result is “no binding”. Same read-out and setting: with B9 the entry was “binds”; with B10, “binds”. Take B11: the binding result is “binds”. For the molecule B12, the binding result is given as “binds”. The same measure, in the same setting: with B13 the entry was “no binding”; with B14, “binds”.

Take B15: the binding result was “no binding”.

On to B16, for which the binding result is reported as “binds”.

As to B17, the binding result is listed as “binds”.

In the case of B18, the binding result is “no binding”.

For another data set, the target named is T2, Pax2m3 (Giardia lamblia, UniProt A8B733 1-171, del172-302).
T2 sequence: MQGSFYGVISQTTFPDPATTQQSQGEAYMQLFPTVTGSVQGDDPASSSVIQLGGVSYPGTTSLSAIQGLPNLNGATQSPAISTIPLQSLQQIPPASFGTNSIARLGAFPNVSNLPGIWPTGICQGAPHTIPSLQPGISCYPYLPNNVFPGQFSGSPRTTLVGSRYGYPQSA
Described as above. The note with it: protein: recombinant; tags: C-terminal V5-His (pET101/D-TOPO); label: 5'-32P.
Turning to B1, the binding result is “no binding”. B17: the binding result is recorded as “no binding”. Consider B19, for which the binding result is listed as “no binding”. Same read-out and setting: with B6 the entry was “no binding”.
